Results reported in patent publication US20230265152A1, “GLP-1R AGONIST / FGF21 FUSION PROTEINS” (SANOFI, priority 2020, published 2023).
Marks after values point to notes of the source that are not given here.

Experiments:
[1] = Thermal shift assay (DSF, Sypro Orange); type: physicochemical; conditions: Data generated via DSF
Excerpt: In addition, for some proteins, a thermal shift assay was applied to analyze thermostability in imitation of differential scanning fluorimetry (DSF or ThermoFluor™) assays (Ahmad S. et al. (2012) Protein Science 21: 433-446; Pantoliano et al. (2001) J. Biomol. Screen 6: 429-440; Niesen et al. (2007) Nat. Protoc. 2: 2212-21). This assay is based on the observation that hydrophobic fluorescent dyes, such as Sypro™ Orange (Life Technologies, cat. No. S6651), increase their fluorescence when they bind to hydrophobic patches on a protein.
Proteins were tested by mixing a solution of each protein in PBS (Gibco) with a 160x solution of Sypro™ Orange (diluted in water from a 5000X DMSO stock as provided by the supplier). The sample volume was adjusted to 20 µL with PBS. Typical conditions contained 0.8 mg/mL protein and 8x Sypro™ Orange in the final mixture, but protein concentrations could be varied between 0.4 mg/mL and 1.2 mg/mL. Samples were dispensed in 96-well PCR plates (BioRad Semi-Skirt 96 white) and shortly centrifuged to remove air bubbles. […] For excitation and quantification of fluorescence, filters for wavelengths of 485 nm and 575 nm were chosen. […] In curves of fluorescence intensity against temperature, the inflection point was chosen as the measure for the melting temperature (Tm).

[2] = Pharmacokinetics after single subcutaneous administration in mouse; type: in vivo, female C57Bl/6 mice; conditions: 0.3 mg/kg s.c.; assay FGF21 intact
Procedure: Plasma concentrations and pharmacokinetic parameters of GLP-1RA/FGF21 Fc fusion proteins were determined after single subcutaneous administration of 0.3 mg/kg in solution to female C57Bl/6 mice or male Cynomolgus monkeys using three different methods. Blood samples were obtained at time points from 30 minutes to 168 hours after dosing.
Plasma samples were analyzed for the intact FGF21 part of the fusion proteins with an ELISA kit (F1231-K01, Eagle Biosciences, USA). The assay utilized the two-site sandwich technique with two selected antibodies that bound to different epitopes of human intact FGF21. […] For the detection of the immunocomplex, the well was then incubated with a substrate solution in a timed reaction and then measured in a spectrophotometric microplate reader. […]
The concentration of the full-length GLP-1RA/FGF21 Fc fusion proteins in plasma were determined utilizing an ELISA method. […] Following washing 3 times with 300 µL PBS-T 150 µL read buffer was added to the wells.
Plasma samples were analyzed for the intact GLP-1 part of the fusion proteins with a GLP-1 ELISA method. […] Following washing 3 times with 300 µL PBS-T, 150 µL read buffer was added to the wells.
The pharmacokinetic parameters were calculated by the program WinNonlin 6.4 using a non-compartmental model and linear trapezoidal interpolation calculation. […]

B1: 252 (protein)
chain: GHPIPDSSPLLQFGGQVRQRYLYTDDAQQTEAHLEIREDGTVGGAADQSPESLLQLKALKPGVIQILGVKTSRFLCQRPDGALYGSLHFDPEACSFRELLLEDGYNVYQSEAHGLPLHLPGNKSPHRDPAPRGPARFLPLPGLPPAPPEPPGILAPQPPDVGSSDPLSMVGPSQGRSPSYAS
modifications: G-FGF21
[1]
  Tm: 43.1 * °C
[2]
  t½ mouse: 42 min
